Results reported in patent publication US6946258B2, “Rapid, immunochemical process for measuring thiopurine methyltransferase” (Biologix Diagnostics, LLC, priority 2002, dated 2005).
Where a chain is given by its changes, count along the chain named.

How the values were obtained:
hTPMT enzyme [1] = target: T1, hTPMT enzyme (Homo sapiens, UniProt P51580, Y240C); test: ELISA immunoassay for TPMT using purified anti-6-MMP IgG; type: biochemical; conditions: TPMT + 100 μM SAM, 37° C., 30 minutes
T1 construct: DNA fragment; first 13 codons of LacZ (vector-encoded leader of pGEM-3Zf(+)) (N); made in house; host or cells: E. coli JM109 (pTPMT)
T1 sequence (P51580 1-245 Y240C): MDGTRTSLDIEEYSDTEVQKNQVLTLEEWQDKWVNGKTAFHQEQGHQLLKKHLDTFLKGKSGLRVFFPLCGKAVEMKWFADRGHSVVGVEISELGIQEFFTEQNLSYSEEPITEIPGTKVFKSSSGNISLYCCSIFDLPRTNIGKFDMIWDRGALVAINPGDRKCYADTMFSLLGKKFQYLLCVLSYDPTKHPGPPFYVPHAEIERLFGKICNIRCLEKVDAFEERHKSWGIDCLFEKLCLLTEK
Description: In order to determine whether TPMT enzyme could methylate 6-MP bound to BSA in reaction wells of a plastic ELISA plate, and if the anti-6-MMP antibody could detect the methylated 6-MMP reaction product, the following assay format was developed: [drawing 3] Schematic Representation of ELISA Assay for TPMT. Substrate BSA-6-mercaptopurine conjugate is coated onto the wells of plastic ELISA plates. In the presence of S-Adenosylmethionine (SAM), TPMT catalyses S-methylation of 6-MP to 6-methylmercaptopurine (6-MMP). Rabbit anti-6-MMP IgG binds to the covalently bound 6-MMP reaction product; and Protein A-Horseradish peroxidase (HRP) conjugate then binds to the rabbit IgG. Blue color develops in the presence of the HRP substrate, Tetramethylbenzidine. After acidification, the color changes to yellow; and the optical density at 450 nm is directly proportional to the amount of 6-MMP produced by enzyme-catalyzed TPMT methylation.
The wells of ‘Immulon B’ ELISA strips were coated with various concentrations of BSA-6MP conjugate and blocked as described above. After blocking solution was removed, the wells received 100 μl of Methylation Reaction Mix consisting of 1 mM Potassium Phosphate, 30 mM Tris-HCl, pH 8.0, lmM EDTA, 100 μM SAM and 1-4 μl of TPMT enzyme (˜6 units/μl). As a control, the wells received 100 μl of same reaction mix except no Mtase enzyme.
The wells were incubated at 37° C. for 30 minutes and were developed as described before. Absorbance was read on an Opsys MR ELISA plate reader (Dynex) at 450 nm. In this ELISA assay format, TPMT enzyme activity is detected as the amount of 6-MMP formed in situ: substrate 6-mercaptopurine is covalently bound to BSA which coats the wells of the plastic ELISA plate. Since anti-6-MMP IgG binds specifically to the methylated reaction product, 6-MMP, it is possible to measure TPMT activity using horseradish peroxidase (HRP) labeled Protein A (or HRP-conjugated goat anti-rabbit IgG). […]

human TPMT = target: T2, human TPMT (Homo sapiens, UniProt P51580); conditions: Deininger et al., 1994, Table 1; cited from earlier work
T2 sequence (P51580 1-245): T1 sequence (P51580 1-245 Y240C) with C240Y

hTPMT enzyme [2] = target: T1, hTPMT enzyme; test: Temperature optimum of recombinant TPMT; type: biochemical
Experimental: Thawed cells (˜15g) were sonicated in (20 mM Tris-Cl, pH 7.5, 1 mM EDTA, 50 mM KC1, 10 mM β-mercaptoethanol) and centrifuged (8000 g for 15 minutes). The supernatant was loaded onto a Q-Sepharose column (Pharmacia, Piscataway, N.J.). […] After a storage of 2 and 5 months at −20° C., no change in TPMT enzyme activity was observed.

[3] = Storage stability of recombinant TPMT; type: physicochemical; conditions: storage of 2 and 5 months at −20° C.
Experimental: The optimal reaction temperature for the hTPMT enzyme is 37° C. […] The relatively high activity of TPMT at ambient temperature facilitates immunoassays using anti-6-MMP antibody. After a storage of 2 and 5 months at −20° C., no change in TPMT enzyme activity was observed.

Q: With “BSA:6-MP: 6-MP (TPMT substrate) linked to BSA by periodate oxidation chemistry; coated onto ELISA wells” as the molecule, how does the “Absorbance at 450 nm” value (hTPMT enzyme [1]; wells coated with BSA:6-MP 10 μg/ml) read?
A: The value was 2.228.

Q: What about the “Absorbance at 450 nm” value (hTPMT enzyme [1]; wells coated with BSA:6-MP 100 μg/ml) of the same molecule?
A: The value was 2.440.

Q: What about the “Absorbance at 450 nm” value (hTPMT enzyme [1]; wells coated with BSA:6-MP 1 mg/ml) of the same molecule?
A: The value was 2.561.

Q: For `OC[C@H]1O[C@@H](n2cnc3c(S)ncnc32)[C@H](O)[C@@H]1O` [6-mercaptopurine riboside], which “substrate quality for human TPMT” value (human TPMT) is on record?
A: The value was “relatively good substrate”.

B1: hTPMT enzyme: Recombinant human thiopurine methyltransferase expressed in E.coli JM109 (pTPMT), partially purified (protein, UniProt P51580 1-245, looked up)
Thiopurine S-methyltransferase: T1 sequence (P51580 1-245 Y240C) with C240Y
modifications: recombinant, E. coli
notes: Recombinant human thiopurine methyltransferase expressed in E.coli JM109 (pTPMT), partially purified
Q: Which results are given for B1?
A: optimal reaction temperature (hTPMT enzyme [2]): 37 °C; enzyme activity at 23° C. relative to the optimum (hTPMT enzyme [2]; 23° C.): nearly as active; change in TPMT enzyme activity after storage [3]: no change
